Measured values published in patent US7799901B2, “Modulators of the function of FAS receptors and other proteins” (Yeda Research and Development Co. Ltd., priority 1995, dated 2010).

How the values were obtained:
human CD40 IC = target: T1, human CD40 IC (Homo sapiens, UniProt P25942); test: Two-hybrid β-galactosidase expression filter assay in SFY526 yeast, DNA-binding domain hybrid human CD40 IC; conditions: specificity test
T1 construct: residues 216-277 of the intracellular domain of the human CD40; expressed in transfected cells; host or cells: SFY526 yeast
T1 sequence (P25942 216-277): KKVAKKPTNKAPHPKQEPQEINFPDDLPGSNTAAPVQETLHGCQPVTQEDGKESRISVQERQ
Excerpt: (§1) To isolate proteins interacting with the intracellular domain of the FAS-R, the yeast two-hybrid system was used (Fields and Song, 1989). […] In this system, the genes for the candidate interacting proteins are cloned into separate expression vectors. In one expression vector, the sequence of the one candidate protein is cloned in phase with the sequence of the GAL4 DNA-binding domain to generate a hybrid protein with the GAL4 DNA-binding-domain, and in the other vector, the sequence of the second candidate protein is cloned in phase with the sequence of the GAL4 activation domain to generate a hybrid protein with the GAL4-activation domain. The two hybrid vectors are then co-transformed into a yeast host strain having a lacZ or HIS3 reporter gene under the control of upstream GAL4 binding sites. […]
(§2) The yeast two-hybrid test was further applied to evaluate the specificity of binding of MACH to MORT-1, in particular, to define the region in MORT-1 to which MACH binds, as well as to determine which of the MACH ORFs interacts with MORT-1, the procedures being as set forth herein above in Examples 1 and 2. Briefly, various MORT-1 and MACH constructs were prepared for testing the interaction of the proteins encoded by the Gal4 DNA-binding domain and activation domain constructs within transfected SFY526 yeast cells as assessed by the β-galactosidase expression filter assay. […]

HeLa cells = test: Ligand-independent cytocidal effect of MACH expression in HeLa cells, neutral red uptake; assay type: cell-based, human; conditions: 48 hrs. after transfection, FIG. 6
Protocol: In order to test this possibility, constructs encoding MACH were prepared with a tetracycline-controlled expression vector (for details see Example 1). These constructs were used to transfect HeLa cells in which the vectors were transiently expressed. Besides the MACH constructs, other control constructs were used to evaluate the effect of transient expression on the viability of the HeLa cells to which the effect of the MACH constructs could be compared. These other constructs included MORT-1, human FAS-IC and luciferase (Luc). In addition, co-transfection of the HeLa cells was also tested by using MORT-1 and MACH constructs to determine what effects the interaction between these proteins would cause. After transfection the HeLa cells were incubated and cell viability was evaluated 48 hrs. after transfection either in the presence or the absence of tetracycline (1 μg/ml) to block expression. Cell viability was determined by the neutral red uptake assay.
The results are shown in FIG. 6, which depicts graphically the ligand-independent triggering of cytocidal effects in cells transfected with MACH in comparison to cells transfected with constructs encoding the other proteins as well as cotransfected cells (MORT1+MACH). […]

[1] = Two-hybrid β-galactosidase expression filter assay in SFY526 yeast, empty pGBT9 vector; assay type: binding; conditions: negative control bait
Excerpt: as §1, §2

MORT1DD (130-245) = target: T2, MORT1DD (130-245) (Homo sapiens, UniProt Q13158); test: Two-hybrid β-galactosidase expression filter assay in SFY526 yeast, DNA-binding domain hybrid MORT1DD (130-245)
T2 construct: 130-245 MORT-1; expressed in transfected cells
T2 sequence (Q13158 82-197): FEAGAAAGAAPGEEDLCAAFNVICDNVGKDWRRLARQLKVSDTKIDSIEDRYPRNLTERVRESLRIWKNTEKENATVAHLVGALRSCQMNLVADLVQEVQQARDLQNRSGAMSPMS
Excerpt: as §1, §2

human FAS DD = target: T3, human FAS DD (Homo sapiens, UniProt P25445); test: Two-hybrid β-galactosidase expression filter assay in SFY526 yeast, DNA-binding domain hybrid human FAS DD; conditions: specificity test
T3 construct: the ‘death domain’ region of the intracellular domain of the human Fas-R (human Fas DD); expressed in transfected cells; host or cells: SFY526 yeast
T3 sequence (P25445 230-314 limits assumed): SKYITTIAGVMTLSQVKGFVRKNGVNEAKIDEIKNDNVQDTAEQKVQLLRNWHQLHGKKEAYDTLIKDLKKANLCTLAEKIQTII
Excerpt: as §1, §2

human p75 IC = target: T4, human p75 IC (Homo sapiens, UniProt P20333); test: Two-hybrid β-galactosidase expression filter assay in SFY526 yeast, DNA-binding domain hybrid human p75 IC; conditions: specificity test
T4 construct: residues 287-461 of the intracellular domain of the human p75 TNF-R; expressed in transfected cells; host or cells: SFY526 yeast
T4 sequence (P20333 287-461): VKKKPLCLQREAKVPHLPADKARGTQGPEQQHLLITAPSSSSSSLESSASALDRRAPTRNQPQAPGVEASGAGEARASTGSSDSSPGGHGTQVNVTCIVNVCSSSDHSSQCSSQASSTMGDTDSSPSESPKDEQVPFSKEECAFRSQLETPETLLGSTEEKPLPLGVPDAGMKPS
Excerpt: as §1, §2

Lamin = test: Two-hybrid β-galactosidase expression filter assay in SFY526 yeast, DNA-binding domain hybrid Lamin; conditions: specificity test
Excerpt: as §1, §2

MORT-1 = target: T5, MORT-1 (Homo sapiens, UniProt Q13158, G32V); test: Two-hybrid β-galactosidase expression filter assay in SFY526 yeast, DNA-binding domain hybrid MORT-1; parameters: the full-length MORT-1 cDNA was used (MORT 1); expressed in transfected cells; host or cells: SFY526 yeast; conditions: substance as activation domain hybrid
T5 sequence (Q13158 with tags, fused parts or gaps G32V): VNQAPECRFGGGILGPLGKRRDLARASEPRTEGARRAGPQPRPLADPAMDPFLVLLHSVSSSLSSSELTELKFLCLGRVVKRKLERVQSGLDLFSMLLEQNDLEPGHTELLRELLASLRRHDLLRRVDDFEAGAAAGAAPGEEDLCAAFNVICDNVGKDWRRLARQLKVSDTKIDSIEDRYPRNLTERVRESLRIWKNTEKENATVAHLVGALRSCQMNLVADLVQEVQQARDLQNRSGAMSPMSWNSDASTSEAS
Excerpt: as §1, with “sites. Only those transformed host cells (cotransformants) in which the two hybrid proteins are expressed and are capable of interacting with each other, will be capable of expressing the reporter gene.” for “sites.”
The yeast two-hybrid test was further applied to evaluate the specificity of binding of MACH to MORT-1, in particular, to define the region in MORT-1 to which MACH binds, as well as to determine which of the MACH ORFs interacts with MORT-1, the procedures being as set forth herein above in Examples 1 and 2. Briefly, various MORT-1 and MACH constructs were prepared for testing the interaction of the proteins encoded by the Gal4 DNA-binding domain and activation domain constructs within transfected SFY526 yeast cells as assessed by the β-galactosidase expression filter assay. […] In the assay, the development of color was determined, where the greater the color development, the greater the interaction between the constructs encoded by the DNA-binding domain and activation domain; Color development was depicted by symbols, where “+++” and “+” indicate the development of a strong color within 30 and 90 min. of the assay, respectively, and “−−−” indicates the lack of development of color within 24 hrs. of the assay. […]

B1: MACH: MORT-1 associated CED3 homolog; full-length MACH cDNA construct; protein later renamed MACHβ1 (protein)
chain: MDFSRNLYDIGEQLDSEDLASLKFLSLDYIPQRKQEPIKDALMLFQRLQEKRMLEESNLSFLKELLFRINRLDLLITYLNTRKEEMERELQTPGRAQISAYRVMLYQISEEVSRSELRSFKFLLQEEISKCKLDDDMNLLDIFIEMEKRVILGEGKLDILKRVCAQINKSLLKIINDYEEFSKERSSSLEGSPDEFSNDFGQSLPNEKQTSGILSDHQQSQFCKSTGESAQTSQH
Q: With B1 as the molecule, how does the “development of color (interaction with DNA-binding domain hybrid)” value (shortened to “development of color”) (human CD40 IC) read?
A: Its value is “−−− (“−−−” indicates the lack of development of color within 24 hrs. of the assay)”.

Q: What about the “cytotoxic effect of induced overexpression in HeLa cells” value (HeLa cells) of the same molecule?
A: The value was “dramatic cytotoxic effect”.

Q: What about the “development of color” value [1] of the same molecule?
A: Its value is “−−− (“−−−” indicates the lack of development of color within 24 hrs. of the assay)”.

Q: And the “development of color” value (MORT1DD (130-245))?
A: Its value is “−−− (“−−−” indicates the lack of development of color within 24 hrs. of the assay)”.

Q: What about the “development of color” value (human FAS DD) of the same molecule?
A: The value was “−−− (“−−−” indicates the lack of development of color within 24 hrs. of the assay)”.

Q: What about the “development of color” value (human p75 IC) of the same molecule?
A: Its value is “−−− (“−−−” indicates the lack of development of color within 24 hrs. of the assay)”.

Q: And the “development of color” value (Lamin)?
A: Its value is “−−− (“−−−” indicates the lack of development of color within 24 hrs. of the assay)”.

Q: What about the “development of color” value (MORT-1) of the same molecule?
A: Its value is “+++ (“+++” and “+” indicate the development of a strong color within 30 and 90 min. of the assay, respectively)”.
